Assay: soluble on expression in E. coli; label from the status in PepcDB or PDB records

Row | Sequence | soluble on expression in E. coli
1 | AAGTAKGHNPTEFPTIYDASSAPTAANTTVGIITIGGVSQTLQDLQQFTSANGLASVNTQTIQTGSSNGDYSDDQQGQGEWDLDSQSIVGSAGGAVQQLLFYMADQSASGNTGLTQAFNQAVSDNVAKVINVSLGWCEADANADGTLQAEDRIFATAAAQGQTFSVSSGDEGVYECNNRGYPDGSTYSVSWPASSPNVIAVGGTTLYTTSAGAYSNETVWNEGLDSNGKLWATGGGYSVYESKPSWQSVVSGTPGRRLLPDISFDAAQGTGALIYNYGQLQQIGGTSLASPIFVGLWARLQSANSNSLGFPAASFYSAISSTPSLVHDVKSGNNGYGGYGYNAGTGWDYPTGWGSLDIAKLSAYIRSNGFGH | soluble
2 | AANDNNVEWNGLFHDQGPLFDNAPEPTSTQSVTLKLRTFKGDITSANIKYWDTADNAFHWVPMVWDSNDPTGTFDYWKGTIPASPSIKYYRFQINDGTSTAWYNGNGPSSTEPNADDFYIIPNFKTPDWLKNGVMYQIFPDRFYNGDSSNDVQTGSYTYNGTPTEKKAWGSSVYADPGYDNSLVFFGGDLAGIDQKLGYIKKTLGANILYLNPIFKAPTNHKYDTQDYMAVDPAFGDNSTLQTLINDIHSTANGPKGYLILDGVFNHTGDSHPWFDKYNNFSSQGAYESQSSPWYNYYTFYTWPDSYASFLGFNSLPKLNYGNSGSAVRGVIYNNSNSVAKTYLNPPYSVDGWRLDAAQYVDANGNNGSDVTNHQIWSEFRNAVKGVNSNAAIIGEYWGNANPWTAQGNQWDAATNFDGFTQPVSEWITGKDYQNNSASISTTQFDSWLRGTRANYPTNVQQSMMNFLSNHDITRFATRSGGDLWKTYLALIFQMTYVGTPTIYYGDEYGMQGGADPDNRRSFDWSQATPSNSAVALTQKLITIRNQYPALRTGSFMTLITDDTNKIYSYGRFDNVNRIAVVLNNDSVSHTVNVPVWQLSMPNGSTVTDKITGHSYTVQNGMVTVAVDGHYGAVLAQ | soluble
3 | AAPTAIEHMEPPFWWAGMQHKGLQLMVHGRDIGRMEAALDYPGVRLVSPTRVPNANYLFVDLEIGPEAQPGSFDIVFKGDGRSERYRYRLLAREQGSAQRQGFGPGDAIYQIMPDRFANGDPSNDNVAGMREQADRRHGGGRHGGDIRGTIDHLDYIAGLGFTQLWPTPLVENDAAAYSYHGYAATDHYRIDPRYGSNEDFVRLSTEARKRGMGLIQDVVLSHIGKHHWWMKDLPTPDWINYGGKFVPTQHHRVAVQDPYAAQADSENFTKGWFVEGMPDLNQTNPLVANYLIQNNIWWIEYAGLSGLRIDTYGYSDGAFLTEYTRRLMAEYPRLNMVGQEWSTRVPVVARWQRGKANFDGYTSHLPSLMDFPLVDAMRNALSKTGEENGLNEVYETLSLDYLYPEPQNLVLFGGNHDMARMFSAAGEDFDRWRMNLVFLMTMPRIPQFYSGDEILMTSTVKGRDDASYRRDFPGGWAGDKANAFSGAGLTSQQRAAQDLVRKLANWRKNQPVIHNGRLMHFGPEENTWVYFRYNKDKRIMVAMNNNDKPMTLPTARFQEMLKGAPSGVDFLSGKTVGLGRELRLAPKSVVVIELPGLPEA | soluble
4 | AAQEKVVKLKIVQTSDVHGNYYPYNFITRKDWQGSLARIYAFVEKEREQYKENLILLDNGDILQGQPTAYYYNYIDTVSPHLCAEMMNYMKYDAGNMGNHDVETGRAVFDRWINTCDFPVLGANIIDISTGEPHLPPYKVMERDGVKIVILGMITPAIPAWLSENLWKGLRFDDMEETARKWMKIIREKENPDLMIGLFHAGQEAFKMSGKYNENASLSVAKNVPGFDIVLMGHDHARECKKVMNVAGDSVLVIDPASNGIVLSNIDVTLKLKDGKVRSKDIKGVLTETKDYGISEDFMKNFAPQYDTVRNFVSK | not soluble
5 | AASSAQCDFGGPFQAYKSVNGPGNGGYYLRKTTKPGTPECAYVLVPQNTLSEGQSTSFTYGKLQNGQMIQLTATVTVNGDKIEVTGAGQDLSGTTTVLFSDYRSCDVMRGPDGNYELWVHSSAINLQSYGCCDTKFAQVAGGRPIHHTWQTYCPPLP | soluble
6 | AASWSHPQFEKGAETAVPNSGGGELFATHCAGCHPQGGNTVHPEKTLARARREANGIRTVRDVAAYIRNPGPGMPAFGEAMIPPADALKIGEYVVASFP | soluble
7 | AATQTWTGDLAIVTIPFSSLRFVKVTPPFSYKKRRAVIETHYDQATKVLLEFSRRWWEFTEADWKRELDAIAPGLYDYYQQWGEDDAEAALALPQSVRNLPTGLLGAHPSVDESRIGEEQVEYYRNSELR | soluble
8 | ADKKLVVATDTAFVPFEFKQGDLYVGFDVDLWAAIAKELKLDYELKPMDFSGIIPALQTKNVDLALAGITITDERKKAIDFSDGYYKSGLLVMVKANNNDVKSVKDLDGKVVAVKSGTGSVDYAKANIKTKDLRQFPNIDNAYMELGTNRADAVLHDTPNILYFIKTAGNGQFKAVGDSLEAQQYGIAFPKGSDELRDKVNGALKTLRENGTYNEIYKKWFGTEPK | soluble
9 | AEDRSLQAEPWFFGAIKRADAEKQLLYSENQTGAFLIRESESQKGDFSLSVLDEGVVKHYRIRRLDEGGFFLTRRKVFSTLNEFVNYYTTTSDGLCVKLEKPCLKIQV | soluble
10 | AEKANQVSNIKTQLAMEYMRGQDYRQATASIEDALKSDPKNELAWLVRAEIYQYLKVNDKAQESFRQALSIKPDSAEINNNYGWFLCGRLNRPAESMAYFDKALADPTYPTPYIANLNKGICSAKQGQFGLAEAYLKRSLAAQPQFPPAFKELARTKMLAGQLGDADYYFKKYQSRVEVLQADDLLLGWKIAKALGNAQAAYEYEAQLQANFPYSEELQTVLTGQ | soluble
11 | AEKRNIFLVGPMGAGKSTIGRQLAQQLNMEFYDSDQEIEKRTGADVGWVFDLEGEEGFRDREEKVINELTEKQGIVLATGGGSVKSRETRNRLSARGVVVYLETTIEKQLARTQRDKKRPLLHVETPPREVLEALANERNPLYEEIADVTIRTDDQSAKVVANQIIHMLESN | soluble
12 | AEMKTDAATLAQEAGNFERISGDLKTQIDQVESTAGSLQGQWRGAAGTAAQAAVVRFQEAANKQKQELDEISTNIRQAGVQYSRADEEQQQALSSQMGF | soluble
13 | AENAKIKFDGVDVERDSNVINDLVPNVTLSLKKPSSDMVEAKIEPDYEGIKRVLLDFIGAYNEVLAEINIVSSNEDQPNNQKSNIVEELTYLSDSQKEEAYKNLGILRSEFLLKNLKSKLESIIFKPYVTSDPNFSIINQMGVFTNSISSSGGLSRYLRLDEKKFDESIRNNIDNVRELFLYDLNGDRVYDNGIAKMLGDCLSPLVASGGVIYNKIKNYDLKIFNQKNKVEDYKKKYEDRERKVEGELNTLDFTVKRMKD | not soluble
14 | AESESFVLDFSQPSADYLDFRNRLQADHVCLENCVLKDKAIAGTVKVQNLAFEKTVKIRMTFDTWKSYTDFPCQYVKDTYAGSDRDTFSFDISLPEKIQSYERMEFAVYYECNGQTYWDSNRGKNYRIIRAELKSTQGMTKPHSGPDLG | soluble
15 | AEVNDPRVGFVAVVTFPVDGPATQHKLVELATGGVQEWIREVPGFLSATYHASTDGTAVVNYAQWESEQAYRVNFGADPRSAELREALSSLPGLMGPPKAVFMTPRGAILPS | soluble
16 | AFTMEIPPTHYAASRAASVAENCINYQQGTPHKLFLVQTVQQASKEDIPGRGHKYHLKFSVEEIIQKQVTVNCTAEVLYPQMGQGSAPEVNFTFEGEIGKNPDEEDNTFYQSLMSLKRPLEAQDIPDNFGNVSPQMKPVQHLAWVACGYVMWQNSTEDTWYKMLKIQTVKQVQRNDDFIELDYTILLHDIASQEIIPWQMQVLWHPQYGTKVKHNSRLPKEGQAE | soluble
17 | AGSMEDIPVEEAVLTGVATDNSEAKITVLGIPDSPGSASAVFRALADAEINIDTVLQNISSLEDNRTDITFTCPRADGPHAMELLRNLQAKNDWQNVLYDDQIGKVSLVGAGMKSHPGVTAEFCEALRDAGVNIELISTSEIRISVLIRESDVDVAARAIHEKFELGGETEAIVYAGTGR | not soluble
18 | AHHHHHHGSAVRLKTPLTWEDIRDLEIGDRVLLSGIVYTARDLAHRRFLEEGFPFNPEGAVIYHCGPLIKNGIVVSAGPTTSARMEKYLDFLFNRGVRGVIGKGGMNHEKFKGRAVYFSYPGGAGSLAREFIVKVRDVYWEDLGMTDAVWELEVRDMPLLVSIDSKGRSLYRKN | soluble
19 | AHHHHHHGSGEKRKTRQAEVNIGMVGHVDHGKTTLTKALTGVWTDTHSEELRRGITIKIGFADAEIRRCSNCGRYSTSPICPYCGHETEFIRRVSFIDSPGHEALMTTMLAGASLMDGAILVIAANEPCPRPQTREHLMALQIIGQKNIIIAQNKIELVDKEKALENYRQIKEFIKGTVAENAPIIPISALHGANIDVLVKAIEEFIPTPKRDSNKPPKMLVLRSFDVNKPGTPPEKLVGGVLGGSIVQGKLKVGDEIEIRPGVPYEEHGRIKYEPITTEIVSLQAGGQFVEEAYPGGLVGIGTKLDPYLTKGDLMAGNVVGKPGKLPPVWTDLRLEVHLLERVVGTEQELNVEPIKRKEVLLLNVGTARTMGLVTALGKDEIELKLQIPVCAEPGERVAISRQIGSRWRLIGYGIIKE | not soluble
20 | AHHHHHHGSGGMTIAEKILATHAGKEEVKPGEIVLAKVDFMFGNDVTTPLAIKTFRKIGVEKVFDPERIAIVLDHFTPNKDIKAAEQCKFSREFAREQGIKWFFEGGNVGVEHCLLPELGLVLPGELIIGADSHTCTYGALGAFATGVGSTDLAVAMATGEAWFRVPETIKFVYEGDLQPWVTSKDLILYTIGDIGVNGALYKVMEFSGEVIEKLSVEQRMTMTNMAIEAGAKTGIIEPDKKTIEYVKGRAKREYKIYKSDEDAKYYKVIEYDVSKIEPQVAFPHLPENTVPISKAAKMNIKIDQVVIGSCTNGRLEDLRMAAEVLEGQKVAPWVRLIILPCSPTVYFKAMKEGLLEIFLEAGAVIGPPTCGPCLGGHMGILASGERAVSTTNRNFVGRMGHPKSEVYLASPYVAAASAILGRIASPEEVVK | soluble
21 | AHHHHHHGSKAPICEVCLKTEDILCPADEKKLEEGIITELDVKISRMLYKLLGDADVEFKKAVEAGDLIVLIVGEGDVPIVIGKGGKNIKYLTRELGKRVRVIESTDDVKKLAVDLLYPAGVFGVNVVYKPDGGQYYKVLVFSRDKSKLPEKSEVLESILTQITGVETKISFI | soluble
22 | AHHHHHHGSKILAIAPNISRPYLGPAAVVHNTLKGFIKINKELEREDIEITFLSINDKIKSKKLTDNINIIGTKRFPPVTFTGEIQALFVSRKLEKPDLVHSHDLYEIFPWILKKIPTIFTLHGIVWKEKMFTKSLYAKLWYYLYEKRLRAYHKKFTKFVAISP | not soluble
23 | AHHHHHHGSKKFPAYLASWEDIENWAKAGAWKVLESGWMPDVIVGLARGGWIAARLYCDYLGVKDLVSIKVEHWGVTATPDGRARLKYGAQYDFEGKKVLIVDDITDTGESMSLAYEYMKSRNPAEIRTATLLNIKGSKFVPDYYAKDIDWVWVVFPWNFVEDMINLTNNLFEEKDKLTTDEIISLFKELHGIEVPREKLEEALRMAEKRKIFKFENGFWTKV | soluble
24 | AHHHHHHGSNTEKYLAKGLEDVYIDQTNICYIDGKEGKLYYRGYSVEELAELSTFEEVVYLLWWGKLPSLSELENFKKELAKSRGLPKEVIEIMEALPKNTHPMGALRTIISYLGNIDDSGDIPVTPEEVYRIGISVTAKIPTIVANWYRIKNGLEYVPPKEKLSHAANFLYMLHGEEPPKEWEKAMDVALILYAEHEINASTLAVMTVGSTLSDYYSAILAGIGALKGPIHGGAVEEAIKQFMEIGSPEKVEEWFFKALQQKRKIMGAGHRVYKTYDPRARIFKKYASKLGDKKLFEIAERLERLVEEYLSKKGISINVDYWSGLVFYGMKIPIELYTTIFAMGRIAGWTAHLAEYVSHNRIIRPRLQYVGEIGKKYLPIELRR | not soluble

From the DeepSol protein solubility set
